Results on twelve molecules are retold here after doi:10.1101/2020.05.12.090381 (bioRxiv, 2020).

Where a chain is given by its changes, count along the chain named. In names and notes the source's numbering stands.

Data set [1] has as its target LdcI-Dendra2_(T69A) (C-terminal fluorescent protein fusion of LdcI) (E. coli | not stated). Kind of data set: negative stain EM.
Data set [2] addresses LdcI R97E/R468E (E. coli) (UniProt P0A9H3). Kind of data set: negative stain EM.
Data set [3] addresses LdcI E445A/D447A/R468E (E. coli) (UniProt P0A9H3). The data set is described as follows: negative stain EM.
Data set [4] deals with Dendra2_(T69A)-LdcI (N-terminal fluorescent protein fusion of LdcI) (not stated | E. coli). The data set is described as follows: negative stain EM.
For another data set, the target named is LdcI R468E (E. coli) (UniProt P0A9H3). The data set is described as follows: negative stain EM.
Data set [5] concerns the molecule itself. Kind of data set: negative stain EM.
Data set [6] deals with the molecule itself. The data set is described as follows: negative stain EM. This is another data set of the same source.
The data set “cryo-EM structure” deals with the molecule itself. The data set is described as follows: cryo-EM structure.

In data set [1], “LdcI-Dendra2_(T69A) (C-terminal fluorescent protein fusion of LdcI)” yielded a stoichiometry N of 10.
As to “LdcI R97E/R468E (from UniProt P0A9H3 1-715) (enzyme)”, in data set [2], the stoichiometry N came out at 10.
The molecule “LdcI E445A/D447A/R468E (from UniProt P0A9H3 1-715) (enzyme)” came in with a stoichiometry N in data set [3] of 10.
Molecule “Dendra2_(T69A)-LdcI (N-terminal fluorescent protein fusion of LdcI)” returned a stoichiometry N in data set [4] of 2.
Consider “LdcI R468E (from UniProt P0A9H3 1-715) (enzyme)”, for which, in the data set with LdcI R468E (E. coli), the stoichiometry N was determined as 10.

B1: mGeosM-LdcI (N-terminal fluorescent protein fusion of LdcI) (other)
chain: MSAIKPDMKIKLRMEGNVNGHHFVIDGDGTGKPFEGKQSMDLEVKEGGPLPFAFDILTTAFMYGNRVFAKYPDNIQDYFKQSFPKGYSWERSLTFEDGGICIARNDITMEGDTFYNKVRFYGTNFPANGPVMQKKTLKWEPSTEKMYVRDGVLTGDIHMALLLEGNAHYRCDSRTTYKAKEKGVKLPGYHFVDHCIEILSHDKDYNKVKLYEHAVAHSGLPDNARRMNVIAILNHMGVYFKEEPIRELHRALERLNFQIVYPNDRDDLLKLIENNARLCGVIFDWDKYNLELCEEISKMNENLPLYAFANTYSTLDVSLNDLRLQISFFEYALGAAEDIANKIKQTTDEYINTILPPLTKALFKYVREGKYTFCTPGHMGGTAFQKSPVGSLFYDFFGPNTMKSDISISVSELGSLLDHSGPHKEAEQYIARVFNADRSYMVTNGTSTANKIVGMYSAPAGSTILIDRNCHKSLTHLMMMSDVTPIYFRPTRNAYGILGGIPQSEFQHATIAKRVKETPNATWPVHAVITNSTYDGLLYNTDFIKKTLDVKSIHFDSAWVPYTNFSPIYEGKCGMSGGRVEGKVIYETQSTHKLLAAFSQASMIHVKGDVNEETFNEAYMMHTTTSPHYGIVASTETAAAMMKGNAGKRLINGSIERAIKFRKEIKRLRTESDGWFFDVWQPDHIDTTECWPLRSDSTWHGFKNIDNEHMYLDPIKVTLLTPGMEKDGTMSDFGIPASIVAKYLDEHGIVVEKTGPYNLLFLFSIGIDKTKALSLLRALTDFKRAFDLNLRVKNMLPSLYREDPEFYENMRIQELAQNIHKLIVHHNLPDLMYRAFEVLPTMVMTPYAAFQKELHGMTEEVYLDEMVGRINANMILPYPPGVPLVMPGEMITEESRPVLEFLQMLCEIGAHYPGFETDIHGAYRQADGRYTVKVLKEESKK
As for B1, in the data set “negative stain EM [5]”, the “stoichiometry N” value worked out at 12.

B2: LdcI H694A (enzyme, E. coli, UniProt P0A9H3 1-715, looked up)
chain: MNVIAILNHMGVYFKEEPIRELHRALERLNFQIVYPNDRDDLLKLIENNARLCGVIFDWDKYNLELCEEISKMNENLPLYAFANTYSTLDVSLNDLRLQISFFEYALGAAEDIANKIKQTTDEYINTILPPLTKALFKYVREGKYTFCTPGHMGGTAFQKSPVGSLFYDFFGPNTMKSDISISVSELGSLLDHSGPHKEAEQYIARVFNADRSYMVTNGTSTANKIVGMYSAPAGSTILIDRNCHKSLTHLMMMSDVTPIYFRPTRNAYGILGGIPQSEFQHATIAKRVKETPNATWPVHAVITNSTYDGLLYNTDFIKKTLDVKSIHFDSAWVPYTNFSPIYEGKCGMSGGRVEGKVIYETQSTHKLLAAFSQASMIHVKGDVNEETFNEAYMMHTTTSPHYGIVASTETAAAMMKGNAGKRLINGSIERAIKFRKEIKRLRTESDGWFFDVWQPDHIDTTECWPLRSDSTWHGFKNIDNEHMYLDPIKVTLLTPGMEKDGTMSDFGIPASIVAKYLDEHGIVVEKTGPYNLLFLFSIGIDKTKALSLLRALTDFKRAFDLNLRVKNMLPSLYREDPEFYENMRIQELAQNIHKLIVHHNLPDLMYRAFEVLPTMVMTPYAAFQKELHGMTEEVYLDEMVGRINANMILPYPPGVPLVMPGEMITEESRPVLEFLQMLCEIGAHYPGFETDIAGAYRQADGRYTVKVLKEESKK
In the case of B2, the binding result in “negative stain EM [6]” is on record as “binds”.

B3: E. coli inducible lysine decarboxylase LdcI, wild type (enzyme, UniProt P0A9H3 1-715, looked up)
chain: B2 chain with A694H
For the molecule B3, the “stoichiometry N” value in “cryo-EM structure” stood at 10.

B4: LdcI R97E (enzyme, E. coli, UniProt P0A9H3 1-715, looked up)
chain: B2 chain with R97E, A694H
Regarding B4, the binding result in “negative stain EM [6]” is recorded as “binds”.

B5: LdcI E445A/D447A (enzyme, E. coli, UniProt P0A9H3 1-715, looked up)
chain: B2 chain with E445A, D447A, A694H
Consider B5, for which the binding result in the data set “negative stain EM [6]” is on record as “binds”.

B6: LdcI H694N (enzyme, E. coli, UniProt P0A9H3 1-715, looked up)
chain: B2 chain with A694N
B6: the binding result in the data set “negative stain EM [6]” is given as “binds”.

B7: LdcI-mGeosM (C-terminal fluorescent protein fusion of LdcI) (other)
chain: B2 chain with A694H
In the case of B7, the “stoichiometry N” value in “negative stain EM [5]” is 10.

Usually stoichiometry N stands for a count of units in the complex or per binding partner.
